According to the supplement of paper PMC7125110:
± gives the standard error. Variants at the floor of the assay were thinned out.

B1: glmS ribozyme (parent)
chain: AUAAAAGCGCCAGAACUACAGAAAUGUAGUUGACGAGGAGGAGGUUUAUCGAAUUUUCGGCGGAUGCCUCCAAA

How the values were obtained:
Conditions in all cases: with glucosamine-6-phosphate
glucosamine-6-phosphate [1] = variants of: B1; assay: self-cleavage kobs at 40 uM GlcN6P; higher = faster cleavage; RNA array
In short: (§1)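 Using a hybridised Cy3 probe at 37 °C, barcoded ribozyme variants transcribed in situ by E. coli RNA polymerase on sequenced MiSeq chips were monitored across tiles imaged over ~14 h. The flow contained glucosamine-6-phosphate from 40 μM to 10 mM in HEPES/KCl/Mg(OAc)2 buffer. Signals were normalised to baseline and to non-cleaving reference variants before per-tile medians were fit to one- or two-exponential decays to yield kobs. Weighted Michaelis–Menten fits across concentrations gave kcat and KM.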

glucosamine-6-phosphate [2] = variants of: B1; assay: self-cleavage kobs at 160 uM GlcN6P; higher = faster cleavage; RNA array
In short: as §1

glucosamine-6-phosphate [3] = variants of: B1; assay: self-cleavage kobs at 640 uM GlcN6P; higher = faster cleavage; RNA array
In short: as §1

glucosamine-6-phosphate [4] = variants of: B1; assay: self-cleavage kobs at 2500 uM GlcN6P; higher = faster cleavage; RNA array
In short: as §1

glucosamine-6-phosphate [5] = variants of: B1; assay: self-cleavage kobs at 10000 uM GlcN6P; higher = faster cleavage; RNA array
In short: as §1

Variant	self-cleavage kobs at 40 uM GlcN6P (glucosamine-6-phosphate [1])	self-cleavage kobs at 160 uM GlcN6P (glucosamine-6-phosphate [2])	self-cleavage kobs at 640 uM GlcN6P (glucosamine-6-phosphate [3])	self-cleavage kobs at 2500 uM GlcN6P (glucosamine-6-phosphate [4])	self-cleavage kobs at 10000 uM GlcN6P (glucosamine-6-phosphate [5])
A36U A42U C68U	< 1e-05 s⁻¹	–	–	–	–
G35C C50U	< 1e-05 s⁻¹	< 1e-05 s⁻¹	< 1e-05 s⁻¹	< 1e-05 s⁻¹	< 1e-05 s⁻¹
G38A U49G A52U	< 1e-05 s⁻¹	–	–	–	–
G35U A42U	< 1e-05 s⁻¹	< 1e-05 s⁻¹	< 1e-05 s⁻¹	< 1e-05 s⁻¹	–
A36G C50G U56G C61A	0.000189 ± 6.2e-05 s⁻¹	–	–	–	0.000459 ± 0.00011 s⁻¹
G37U G62A	< 1e-05 s⁻¹	< 1e-05 s⁻¹	–	–	–
A36C G59A C67A	< 1e-05 s⁻¹	–	–	–	< 1e-05 s⁻¹
G37U U54G A64U	< 1e-05 s⁻¹	–	–	–	< 1e-05 s⁻¹
G38A G41U U46C	< 1e-05 s⁻¹	–	–	–	< 1e-05 s⁻¹
G35A U54A	< 1e-05 s⁻¹	–	< 1e-05 s⁻¹	< 1e-05 s⁻¹	–
A36G G41A G51C C61G C67U	< 1e-05 s⁻¹	–	–	–	< 1e-05 s⁻¹
G35U G41U U45C	< 1e-05 s⁻¹	–	–	–	< 1e-05 s⁻¹
A36C G40A U56G	< 1e-05 s⁻¹	–	–	–	–
A36C G43A U47C	< 1e-05 s⁻¹	–	–	–	–
G35U G38C	< 1e-05 s⁻¹	–	< 1e-05 s⁻¹	< 1e-05 s⁻¹	< 1e-05 s⁻¹
G37C U56C	< 1e-05 s⁻¹	–	–	–	< 1e-05 s⁻¹
A36G G44U	< 1e-05 s⁻¹	< 1e-05 s⁻¹	< 1e-05 s⁻¹	–	< 1e-05 s⁻¹
A36G C50G C68U	0.000269 ± 0.0001 s⁻¹	0.000434 ± 0.00013 s⁻¹	0.000436 ± 0.00017 s⁻¹	9.73e-05 ± 3.6e-05 s⁻¹	0.000205 ± 5.4e-05 s⁻¹
G37C U46G	< 1e-05 s⁻¹	< 1e-05 s⁻¹	< 1e-05 s⁻¹	–	–
G35U C58G G62U	< 1e-05 s⁻¹	–	–	–	–
G35A G51C	< 1e-05 s⁻¹	–	< 1e-05 s⁻¹	< 1e-05 s⁻¹	–
G38A C50G C68U	7.89e-05 ± 2.3e-05 s⁻¹	–	8.33e-05 ± 3.1e-05 s⁻¹	0.000109 ± 2.4e-05 s⁻¹	4.82e-05 ± 1.5e-05 s⁻¹
G37U G44C	< 1e-05 s⁻¹	< 1e-05 s⁻¹	< 1e-05 s⁻¹	–	–
G38A U46G A52U	< 1e-05 s⁻¹	–	–	–	–
G35A A52G	< 1e-05 s⁻¹	–	–	< 1e-05 s⁻¹	< 1e-05 s⁻¹

Variant	self-cleavage kobs at 40 uM GlcN6P (glucosamine-6-phosphate [1])	self-cleavage kobs at 160 uM GlcN6P (glucosamine-6-phosphate [2])	self-cleavage kobs at 640 uM GlcN6P (glucosamine-6-phosphate [3])	self-cleavage kobs at 2500 uM GlcN6P (glucosamine-6-phosphate [4])	self-cleavage kobs at 10000 uM GlcN6P (glucosamine-6-phosphate [5])
A36U G43A U56A	< 1e-05 s⁻¹	–	< 1e-05 s⁻¹	–	< 1e-05 s⁻¹
G37C G60U	< 1e-05 s⁻¹	< 1e-05 s⁻¹	–	–	< 1e-05 s⁻¹
G38C G60C C70U	< 1e-05 s⁻¹	–	–	–	–
G38A A39G U45G C50G	< 1e-05 s⁻¹	–	–	< 1e-05 s⁻¹	–
G35C U65A	< 1e-05 s⁻¹	–	< 1e-05 s⁻¹	–	< 1e-05 s⁻¹
G35U C68A	< 1e-05 s⁻¹	< 1e-05 s⁻¹	< 1e-05 s⁻¹	< 1e-05 s⁻¹	< 1e-05 s⁻¹
G37A U56G	5.06e-05 ± 1.6e-05 s⁻¹	–	–	–	0.00174 ± 0.00028 s⁻¹
G38U G40C	< 1e-05 s⁻¹	–	< 1e-05 s⁻¹	< 1e-05 s⁻¹	< 1e-05 s⁻¹
G38C G43C	< 1e-05 s⁻¹	–	–	–	–
G35C U55C	< 1e-05 s⁻¹	< 1e-05 s⁻¹	–	< 1e-05 s⁻¹	< 1e-05 s⁻¹
A36U G41A	< 1e-05 s⁻¹	< 1e-05 s⁻¹	< 1e-05 s⁻¹	< 1e-05 s⁻¹	< 1e-05 s⁻¹
C34U U55G	< 1e-05 s⁻¹	< 1e-05 s⁻¹	< 1e-05 s⁻¹	–	–
A36U U46G A53U	< 1e-05 s⁻¹	–	< 1e-05 s⁻¹	< 1e-05 s⁻¹	< 1e-05 s⁻¹
A36U G59C	< 1e-05 s⁻¹	–	< 1e-05 s⁻¹	–	< 1e-05 s⁻¹
A36U G59U	< 1e-05 s⁻¹	–	< 1e-05 s⁻¹	–	< 1e-05 s⁻¹
G37A A52C C61A	< 1e-05 s⁻¹	–	–	–	< 1e-05 s⁻¹
G37U A39G G62A C68A	< 1e-05 s⁻¹	–	–	–	< 1e-05 s⁻¹
A39C A42C C68G	< 1e-05 s⁻¹	–	–	–	–
G35A A48U	< 1e-05 s⁻¹	< 1e-05 s⁻¹	< 1e-05 s⁻¹	< 1e-05 s⁻¹	< 1e-05 s⁻¹
G38U G41C C68G	< 1e-05 s⁻¹	–	–	–	< 1e-05 s⁻¹
G37C C50U C70A	0.00229 ± 0.00095 s⁻¹	–	–	–	–
A36U G44U	< 1e-05 s⁻¹	< 1e-05 s⁻¹	< 1e-05 s⁻¹	< 1e-05 s⁻¹	< 1e-05 s⁻¹
G35U G44C U56C	< 1e-05 s⁻¹	–	–	–	–
G35C C61U G62A	< 1e-05 s⁻¹	–	–	–	< 1e-05 s⁻¹
